pKd: −log10 of the molar value.
Experiments:
[1] = target: crystallized mutant mouse IL-17RB-SEFIR (RB-SEFIR-M; K364A, K367A, K368A and K369A quadruple mutant, residues 325-486) (mouse) (UniProt Q9JIP3); test: SPR; printed as Ka
[2] = target: wild type mouse IL-17RB-SEFIR (WT-RB-SEFIR) (mouse) (UniProt Q9JIP3); test: SPR; printed as Ka
wild type mouse IL-17RB-SEFIR (WT-RB-SEFIR) (mouse), sequence (Q9JIP3 314-486): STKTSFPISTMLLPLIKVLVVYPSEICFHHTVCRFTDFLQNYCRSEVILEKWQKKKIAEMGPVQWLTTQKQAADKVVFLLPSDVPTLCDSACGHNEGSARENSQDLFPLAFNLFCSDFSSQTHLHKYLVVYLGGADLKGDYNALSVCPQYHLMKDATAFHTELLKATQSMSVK

recombinant mouse Act1 SEFIR domain (mAct1-SEFIR, residues 391 to 537), sequence (Q8N7N6 391-537): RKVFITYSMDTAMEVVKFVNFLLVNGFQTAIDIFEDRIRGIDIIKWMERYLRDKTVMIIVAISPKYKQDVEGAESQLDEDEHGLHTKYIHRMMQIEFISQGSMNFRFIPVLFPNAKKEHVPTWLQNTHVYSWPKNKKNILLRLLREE
crystallized mutant mouse IL-17RB-SEFIR (RB-SEFIR-M; K364A, K367A, K368A and K369A quadruple mutant, residues 325-486) (mouse), sequence (Q9JIP3 325-486 K364A/K367A/K368A/K369A): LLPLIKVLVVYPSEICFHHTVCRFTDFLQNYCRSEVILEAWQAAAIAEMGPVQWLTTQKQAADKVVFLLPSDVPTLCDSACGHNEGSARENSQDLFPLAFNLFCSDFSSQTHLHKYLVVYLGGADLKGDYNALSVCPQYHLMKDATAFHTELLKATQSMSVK

pKd [1]: 5.82
pKd [2]: 5.85
Substance: recombinant mouse Act1 SEFIR domain (mAct1-SEFIR, residues 391 to 537) (from UniProt Q8N7N6 391-537)

From patent US20150158912A1
